Data published in the supplement of paper PMC10724198.
± gives the standard deviation of the averaged measurements.

Experiments:
Saccharomyces cerevisiae [1] = test: protein stability index of tFT-peptide fusion (C-terminal peptide) (PSI (0-1 scale)); higher = more stable (slower turnover); conditions: genetic background: wild type; temperature: 30 C
Saccharomyces cerevisiae [2] = test: as above
Experimental: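 MPS profiling in S. cerevisiae of the tFT-X12 degron library: putative degron peptides plus stable controls, 12 aa, fused to the C-terminus of a sfGFP-mCherry timer. Cells are FACS-sorted into 8 mCherry/sfGFP bins and deep-sequenced. PSI runs from 0 (unstable) to 1 (stable). Backgrounds are wild type, das1Δ and doa10Δ at 30 °C, and wild type, das1Δ, cdc34-1 and cdc53-1 at 37 °C; 2-3 technical replicates each.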

[3] = genetic background: cdc34-1, temperature: 37 C
[4] = genetic background: cdc53-1, temperature: 37 C
[5] = genetic background: das1 deletion, temperature: 30 C
[6] = genetic background: das1 deletion, temperature: 37 C
[7] = genetic background: doa10 deletion, temperature: 30 C
[8] = genetic background: wild type, temperature: 30 C
[9] = genetic background: wild type, temperature: 37 C
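Also: PSI is a weighted mean of sequencing reads over stability bins, variants kept only with over 10 reads, mCherry proximal and sfGFP distal, peptide attached via GGGS linker.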

Row | Sequence | protein stability index (Saccharomyces cerevisiae [1]) | protein stability index (Saccharomyces cerevisiae [2]; [3]) | protein stability index (Saccharomyces cerevisiae [2]; [4]) | protein stability index (Saccharomyces cerevisiae [2]; [5]) | protein stability index (Saccharomyces cerevisiae [2]; [6]) | protein stability index (Saccharomyces cerevisiae [2]; [7]) | protein stability index (Saccharomyces cerevisiae [2]; [8]) | protein stability index (Saccharomyces cerevisiae [2]; [9])
1 | VLGPRFCFVCHA | 0.3455 ± 0.0025 | 0.555 ± 0.067 | 0.604 ± 0.03 | 0.444 ± 0.039 | 0.6194 ± 0.0023 | 0.223 ± 0.0071 | 0.253 ± 0.033 | 0.4594 ± 0.003
2 | VLLSSSLVFLIS | 0.462 ± 0.044 | 0.597 ± 0.022 | 0.6439 ± 0.0011 | 0.522 ± 0.016 | 0.631 ± 0.018 | 0.385 ± 0.016 | 0.416 ± 0.02 | 0.575 ± 0.0085
3 | VLVCYFCRYISH | 0.485 ± 0.0091 | 0.479 ± 0.059 | 0.579 ± 0.052 | 0.413 ± 0.046 | 0.573 ± 0.011 | 0.365 ± 0.0057 | 0.398 ± 0.021 | 0.5316 ± 0.0028
4 | VLVTFFIRSGVS | 0.411 ± 0.045 | 0.456 ± 0.0087 | 0.54 ± 0.0081 | 0.356 ± 0.042 | 0.536 ± 0.018 | 0.311 ± 0.01 | 0.338 ± 0.028 | 0.49942 ± 1.4e-06
5 | VMFCRFPLRFGC | 0.475 ± 0.026 | 0.662 ± 0.031 | 0.726 ± 0.03 | 0.631 ± 0.0071 | 0.7445 ± 0.0057 | 0.3191 ± 0.0022 | 0.348 ± 0.023 | 0.561 ± 0.021
6 | VPTRRRGNRRPA | 0.788 ± 0.03 | 0.673 ± 0.022 | 0.7259 ± 0.0048 | 0.639 ± 0.021 | 0.725 ± 0.018 | 0.641 ± 0.011 | 0.653 ± 0.015 | 0.706 ± 0.02
7 | VQVLVAIMDGRM | 0.354 ± 0.011 | 0.346 ± 0.023 | 0.4143 ± 0.0016 | 0.371 ± 0.031 | 0.387 ± 0.004 | 0.38 ± 0.039 | 0.37 ± 0.019 | 0.39 ± 0.017
8 | VRFLSLNVLFFC | 0.38 ± 0.033 | 0.54 ± 0.032 | 0.625 ± 0.022 | 0.482 ± 0.025 | 0.628 ± 0.028 | 0.222 ± 0.0066 | 0.244 ± 0.029 | 0.48 ± 0.0046
9 | VRGWLAYLRWII | 0.274 ± 0.018 | 0.58 ± 0.03 | 0.638 ± 0.026 | 0.631 ± 0.027 | 0.724 ± 0.0083 | 0.195 ± 0.012 | 0.205 ± 0.018 | 0.303 ± 0.0047
10 | VSFGELGVEVVG | 0.451 ± 0.022 | 0.709 ± 0.022 | 0.735 ± 0.041 | 0.529 ± 0.017 | 0.736 ± 0.017 | 0.538 ± 0.014 | 0.559 ± 0.018 | 0.7148 ± 0.0022
11 | VSGEWSFLVRVQ | 0.39 ± 0.15 | 0.548 ± 0.026 | 0.573 ± 0.0061 | 0.452 ± 0.025 | 0.61 ± 0.027 | 0.392 ± 0.0066 | 0.411 ± 0.024 | 0.554 ± 0.012
12 | VSISLCVLCPVF | 0.349 ± 0.018 | 0.268 ± 0.01 | 0.319 ± 0.016 | 0.258 ± 0.024 | 0.356 ± 0.0076 | 0.2408 ± 0.0018 | 0.261 ± 0.016 | 0.312 ± 0.008
13 | VSLSWFSCCFVG | 0.386 ± 0.0073 | 0.497 ± 0.066 | 0.556 ± 0.03 | 0.439 ± 0.026 | 0.489 ± 0.023 | 0.376 ± 0.026 | 0.377 ± 0.019 | 0.458 ± 0.01
14 | VSVFSLFLFLRV | 0.421 ± 0.0044 | 0.25 ± 0.047 | 0.194 ± 0.022 | 0.357 ± 0.03 | 0.413 ± 0.045 | 0.531 ± 0.031 | 0.35 ± 0.03 | 0.353 ± 0.049
15 | VSVVLKTQRVVC | 0.4809 ± 0.0012 | 0.595 ± 0.026 | 0.607 ± 0.008 | 0.432 ± 0.039 | 0.60289 ± 0.00044 | 0.3 ± 0.0041 | 0.346 ± 0.033 | 0.535 ± 0.01
16 | VTFWISLVYVLV | 0.218 ± 0.011 | 0.192 ± 0.015 | 0.264 ± 0.022 | 0.18 ± 0.023 | 0.35 ± 0.0028 | 0.148 ± 0.0088 | 0.16 ± 0.017 | 0.279 ± 0.027
17 | VTVWVFVFLRGL | 0.374 ± 0.052 | 0.319 ± 0.0069 | 0.393 ± 0.015 | 0.315 ± 0.029 | 0.454 ± 0.029 | 0.294 ± 0.0043 | 0.302 ± 0.019 | 0.453 ± 0.0035
18 | VVACCVVFWVLP | 0.437 ± 0.086 | 0.232 ± 0.017 | 0.469 ± 0.042 | 0.27 ± 0.028 | 0.481 ± 0.016 | 0.231 ± 0.011 | 0.292 ± 0.022 | 0.507 ± 0.013
19 | VVCLCEYRLHIF | 0.0917 ± 0.047 | 0.203 ± 0.029 | 0.274 ± 0.031 | 0.214 ± 0.034 | 0.399 ± 0.011 | 0.0658 ± 0.017 | 0.0733 ± 0.033 | 0.0928 ± 0.0073
